Source: PMC2175517

Target: poly(ADP-ribosyl)ated GST-Sp1-8xHis (UniProt P08047)
Assay: EMSA
Settings: after PARP-1 + 200 uM NAD+ + nicked DNA; approximately 71% reduction; EMSA in buffer D (5 mM HEPES, 10% glycerol, 0.05 mM EDTA, 0.125 mM PMSF), 25 ng poly(dI-dC) (omitted for recombinant Sp1), room temperature 5 min; pH not …

Chain of UniProt P08047 (P08047 whole entry): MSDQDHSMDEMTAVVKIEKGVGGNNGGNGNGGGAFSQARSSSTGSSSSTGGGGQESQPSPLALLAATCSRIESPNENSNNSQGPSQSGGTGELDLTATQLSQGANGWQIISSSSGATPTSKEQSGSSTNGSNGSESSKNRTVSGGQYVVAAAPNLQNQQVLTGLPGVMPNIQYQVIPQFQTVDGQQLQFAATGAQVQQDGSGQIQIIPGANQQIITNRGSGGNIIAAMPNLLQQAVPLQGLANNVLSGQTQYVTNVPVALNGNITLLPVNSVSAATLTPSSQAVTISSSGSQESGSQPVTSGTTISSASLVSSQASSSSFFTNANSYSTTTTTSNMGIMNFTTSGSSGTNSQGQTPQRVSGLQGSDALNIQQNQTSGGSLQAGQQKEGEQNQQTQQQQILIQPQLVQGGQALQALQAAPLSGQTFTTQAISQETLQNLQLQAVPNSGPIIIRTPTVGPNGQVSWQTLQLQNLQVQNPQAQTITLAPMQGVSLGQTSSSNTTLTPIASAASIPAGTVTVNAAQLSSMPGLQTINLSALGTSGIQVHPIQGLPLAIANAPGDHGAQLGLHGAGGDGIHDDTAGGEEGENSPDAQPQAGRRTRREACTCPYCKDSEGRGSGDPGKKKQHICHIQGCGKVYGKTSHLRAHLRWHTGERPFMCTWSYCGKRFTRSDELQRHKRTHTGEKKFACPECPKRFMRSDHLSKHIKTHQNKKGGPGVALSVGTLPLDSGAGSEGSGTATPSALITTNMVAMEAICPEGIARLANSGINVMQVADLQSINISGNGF

Question: How did the binding signal (% of unmodified Sp1) turn out when “GATCATATCTGCGGGGCGGGGCAGACACAG (double strand) [Sp1 oligonucleotide]” was run?
Answer: 29
